Test results reported in US5070188A, “Acylated epidermal growth factor” (Ethicon, Inc., priority 1989, dated 1991).
Where “and” joins values, the source holds several entries; their conditions need not be identical. Identical values can stand only once.

Columns and labels:
trypsin = target: T1, trypsin (Bos taurus, UniProt P00760); experiment: in vitro susceptibility to proteolytic degradation (tryptic digestion, HPLC); assay type: in vitro ADME
T1 construct: purchased Worthington Biochem Corp
T1 sequence (P00760 24-246): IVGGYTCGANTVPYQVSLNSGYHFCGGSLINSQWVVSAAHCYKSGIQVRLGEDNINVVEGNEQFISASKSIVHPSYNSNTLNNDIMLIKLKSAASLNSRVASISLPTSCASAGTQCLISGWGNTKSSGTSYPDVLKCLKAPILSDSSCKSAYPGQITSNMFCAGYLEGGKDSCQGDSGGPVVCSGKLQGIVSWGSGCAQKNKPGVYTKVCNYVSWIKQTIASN

[1] = shelf stability, activity followed with the Receptor Binding Assay; assay type: physicochemical; details: for activity retained (RBA), 2 months/37° C.: stored 2 months at 37° C.; for activity retained (RBA), 2 months/4° C.: stored 2 months at 4° C.
From the text: Samples are further analyzed by testing the biological activity in the Receptor Binding Assay (RBA) system and/or in a mitogenic assay system according to the standard procedure. Under these conditions, the extent of activity of modified EGF was compared with that of the unmodified EGF on a weight per weight basis. A similar test is used to follow the stability of EGF products. The RBA is described in Savage et al., Analytical Biochem, 111, pages 195 et seq. (1981) and in U.S. Pat. No. 4,717,717. For RBA studies, a cell line with a high density of receptors for EGF is grown to confluency in microwell plates. After removing the growth media and slightly fixing the cells, the binding of modified EGF to the cell surface in the presence of competing iodinated-EGF is compared with the binding of non-radioactive, unmodified EGF under the same conditions. The concentration of modified EGF is extrapolated from the standard curve made for unmodified EGF. Acylated EGF with acyl side chains ranging from C2 to C8 retained biological activity according to the RBA.
The shelf stability of EGF and acylated EGF derivatives with different degrees of modification and acyl side chains was studied using the Receptor Binding Assay (RBA) system. […]

EGF sensitive cell line = experiment: mitogenic assay, tritium labelled thymidine incorporation; assay type: cell-based; details: compared with C2 acylated EGF
Procedure: For mitogenic assay systems, an EGF sensitive cell line is grown to confluency at the bottom of microwell plates. After replacing the regular growth media with growth factor poor media, modified EGF is added with tritium labelled thymidine. The extent of incorporation of the tritium labelled thymidine in the presence and absence of growth factors is then weighed. The effects of modified EGF are compared with those of unmodified EGF under the same system.

Row | Substance | activity retained (RBA), 2 months/37° C. [1] | activity retained (RBA), stored time 0 [1] | activity retained (RBA), 2 months/4° C. [1] | other results
1 | C2 -EGF: human EGF triacylated with acetyl groups | 87.37% and 88% | 100% |  | remaining fraction that resisted proteolysis (trypsin; mixture C2-EGF:native EGF 1.5 to 1, TPCK-trypsin, up to 4 hours incubation): 75-80%; fraction that resisted proteolytic cleavage at Arg 41 and Arg 45 (trypsin; trypsin, over 4 hours incubation at 30° C.): over 75%; tryptic fragments generated (HPLC, cation exchanger column) (trypsin; tryptic digestion, substance alone): did not generate any fragment; improvement of retained activity over control unmodified native EGF ([1]; stored at 37° C., 2 months): 30%
2 | C6 -EGF: acylated human EGF with C6 acyl side chain | 66.94% | 100% | 61.88% | 
3 | C8 -EGF: acylated human EGF with C8 acyl side chain | 69.04% | 100% | 83.19% | 
4 | C12: acylated EGF having an acyl side chain of C12 |  |  |  | reactivity in the mitogenic assay (EGF sensitive cell line): nearly as reactive as C2
5 | Control EGF: Recombinantly produced human EGF (Chiron Corporation), unmodified 53 amino acid polypeptide, used as control [reference compound] | 57.52% and 58% | 100% | 81.09% and 81% | fraction digested (trypsin; mixture C2-EGF:native EGF 1.5 to 1, TPCK-trypsin, within about 20 minutes): over 85%; cleavage by trypsin (trypsin; within 5 minutes post-incubation, 30° C.): over 65%; remaining molecules cleaved by trypsin (trypsin; within 2 hours post-incubation): 35%
